We go through four molecules from patent US20130315910A1 (Xencor, published 2013).

Assay [1] concerns the target T1, mFcγRIV.
T1 construct: also called mouse FcγRIV; not shown: C-terminal His and GST tags (named only on our card)
T1 chain: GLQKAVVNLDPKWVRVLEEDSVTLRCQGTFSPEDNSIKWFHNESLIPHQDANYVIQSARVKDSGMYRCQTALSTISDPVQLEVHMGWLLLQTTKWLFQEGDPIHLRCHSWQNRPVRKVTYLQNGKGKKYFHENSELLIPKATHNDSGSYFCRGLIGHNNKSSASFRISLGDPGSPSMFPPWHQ
The assay can be described thus: SPR.

The target in assay [2] is T2, cynoFcγRIIb (Macaca fascicularis, UniProt A0A140HDP4).
T2 construct: extracellular region, C-terminal His- and GST-tag; also called cynomolgus monkey FcγRIIb
T2 sequence (receptor extracellular region): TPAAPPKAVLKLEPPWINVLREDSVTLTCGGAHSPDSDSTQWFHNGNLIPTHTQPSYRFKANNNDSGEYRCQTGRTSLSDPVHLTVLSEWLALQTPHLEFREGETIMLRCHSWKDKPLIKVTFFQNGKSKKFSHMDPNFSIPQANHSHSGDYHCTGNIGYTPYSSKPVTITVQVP
The assay can be described thus: SPR.

Assay [3] has as its target T3, cynoFcγRIIIa (Macaca fascicularis, UniProt Q8SPW2).
T3 construct: extracellular region, C-terminal His- and GST-tag; also called cynomolgus monkey FcγRIIIa
The experiment in a line: SPR.

The target of assay [4] is T4, mFcγRIIb (Mus musculus, UniProt P08101).
T4 construct: extracellular region, C-terminal His- and GST-tag; also called mouse FcγRII
T4 sequence (receptor extracellular region, looked up): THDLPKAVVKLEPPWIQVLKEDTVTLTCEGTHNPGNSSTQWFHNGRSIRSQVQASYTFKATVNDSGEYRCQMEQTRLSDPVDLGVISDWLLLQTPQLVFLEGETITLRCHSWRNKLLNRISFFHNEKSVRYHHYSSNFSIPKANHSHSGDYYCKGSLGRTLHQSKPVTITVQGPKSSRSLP
The experiment in a line: SPR, off-rate. The procedure: Variants were screened for receptor affinity using Biacore™ technology, also referred to as Biacore herein, a surface plasmon resonance (SPR) based technology for studying biomolecular interactions in real time. SPR measurements were performed using a Biacore 3000 instrument (Biacore, Piscataway, N.J.). A protein A/G (Pierce Biotechnology) CM5 biosensor chip (Biacore) was generated using a standard primary amine coupling protocol. All measurements were performed using HBS-EP buffer (10 mM HEPES pH 7.4, 0.15 M NaCl, 3 mM EDTA, 0.005% vol/vol surfactant P20, Biacore). Antibodies at 20 nM or 50 nM in HBS-EP buffer were immobilized on the protein A/G surface and FcγRs were injected. After each cycle, the surface was regenerated by injecting glycine buffer (10 mM, pH 1.5). Data were processed by zeroing time and response before the injection of FcγR and by subtracting appropriate nonspecific signals (response of reference channel and injection of running buffer). Kinetic analyses were performed by global fitting of binding data with a 1:1 Langmuir binding model using BIAevaluation software (Biacore).
Variant antibodies were tested for their affinity to mouse or cynologous monkey FcγRs using Biacore SPR as described above. Specifically, antibodies were first immobilized on a protein A/G chip to high density, and then followed by injections of the extracellular domain of the mouse or cynologous monkey FcγR of interest. Both association and dissociation phases were tracked in real time using the Biacore technology.

The target in assay [5] is T5, human FcγRIIIa (158V), His- and GST-tagged (human, UniProt P08637 17-208).
T5 construct: also called V158 FcγRIIIa; VIIIa; not shown: 6xHis and GST tags of the pTT5 vector
The experiment in a line: SPR.

Assay [6] addresses T6, human FcγRI receptor protein (R&D Systems) (human, UniProt P12314 16-288).
T6 construct: also called soluble FcγRI; solFcγRI
The experiment in a line: SPR.

Assay [7] has as its target T7, human FcγRIIb receptor protein (R&D Systems) (human, UniProt P31994 46-217).
T7 construct: Bought protein injected over captured antibody in Biacore; also called CD32b
T7 sequence (looked up): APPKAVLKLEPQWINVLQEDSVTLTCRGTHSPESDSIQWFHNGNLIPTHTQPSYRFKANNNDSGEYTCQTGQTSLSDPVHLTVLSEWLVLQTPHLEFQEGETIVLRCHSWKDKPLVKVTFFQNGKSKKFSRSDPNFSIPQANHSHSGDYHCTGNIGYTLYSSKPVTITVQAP
The experiment in a line: SPR.

Assay [8] deals with T8, human FcγRIIa (131R), His- and GST-tagged (human, UniProt P12318 34-217).
T8 construct: Expressed in HEK293T cells, purified by nickel chromatography; also called R131 FcγRIIa; not shown: 6xHis and GST tags of the pTT5 vector
T8 sequence (looked up): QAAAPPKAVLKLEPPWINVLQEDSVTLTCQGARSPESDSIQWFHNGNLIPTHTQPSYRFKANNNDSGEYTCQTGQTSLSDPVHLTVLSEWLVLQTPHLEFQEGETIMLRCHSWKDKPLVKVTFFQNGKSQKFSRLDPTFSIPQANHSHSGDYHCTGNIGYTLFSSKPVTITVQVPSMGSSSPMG
The assay can be described thus: SPR.

Assay [9] concerns the target T9, human FcγRIIa (131H), His- and GST-tagged (human, UniProt P12318 34-217).
T9 construct: also called H131 FcγRIIa; HIIa; not shown: 6xHis and GST tags of the pTT5 vector
T9 sequence (looked up): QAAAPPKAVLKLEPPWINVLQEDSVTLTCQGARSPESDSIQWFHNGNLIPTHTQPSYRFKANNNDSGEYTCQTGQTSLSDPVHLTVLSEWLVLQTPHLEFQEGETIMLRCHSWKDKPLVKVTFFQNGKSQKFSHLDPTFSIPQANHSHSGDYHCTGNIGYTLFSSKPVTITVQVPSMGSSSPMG
The assay can be described thus: SPR.

Assay [10] concerns the target T4, mFcγRIIb. The assay can be described thus: SPR.
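Wherever Fold vs WT IgG1 (off-rate) is given: fold improvement over WT IgG1 so higher means slower dissociation than WT.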

T5 sequence (P08637 17-208 F176V): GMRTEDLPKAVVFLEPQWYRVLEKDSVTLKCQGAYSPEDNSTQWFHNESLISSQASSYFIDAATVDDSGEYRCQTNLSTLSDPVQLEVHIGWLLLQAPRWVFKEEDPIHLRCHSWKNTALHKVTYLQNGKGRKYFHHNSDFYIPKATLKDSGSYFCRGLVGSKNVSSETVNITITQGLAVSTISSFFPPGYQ
T3 sequence (Q8SPW2 17-208): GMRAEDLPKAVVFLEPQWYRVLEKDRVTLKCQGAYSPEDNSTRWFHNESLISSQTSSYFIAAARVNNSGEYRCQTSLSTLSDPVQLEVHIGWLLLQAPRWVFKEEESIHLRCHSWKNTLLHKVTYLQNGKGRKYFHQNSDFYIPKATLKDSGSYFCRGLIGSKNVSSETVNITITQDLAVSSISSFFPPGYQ
T6 sequence (P12314 16-288 limits assumed): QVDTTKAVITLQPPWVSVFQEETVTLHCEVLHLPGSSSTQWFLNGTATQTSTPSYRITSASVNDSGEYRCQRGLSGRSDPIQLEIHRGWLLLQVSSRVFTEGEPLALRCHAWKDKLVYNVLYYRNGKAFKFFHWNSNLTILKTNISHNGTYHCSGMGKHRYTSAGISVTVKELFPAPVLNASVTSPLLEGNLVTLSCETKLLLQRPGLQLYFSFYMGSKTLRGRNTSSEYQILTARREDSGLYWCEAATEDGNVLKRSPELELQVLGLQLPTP

B1: L234F (antibody, human IgG1, kappa)
heavy: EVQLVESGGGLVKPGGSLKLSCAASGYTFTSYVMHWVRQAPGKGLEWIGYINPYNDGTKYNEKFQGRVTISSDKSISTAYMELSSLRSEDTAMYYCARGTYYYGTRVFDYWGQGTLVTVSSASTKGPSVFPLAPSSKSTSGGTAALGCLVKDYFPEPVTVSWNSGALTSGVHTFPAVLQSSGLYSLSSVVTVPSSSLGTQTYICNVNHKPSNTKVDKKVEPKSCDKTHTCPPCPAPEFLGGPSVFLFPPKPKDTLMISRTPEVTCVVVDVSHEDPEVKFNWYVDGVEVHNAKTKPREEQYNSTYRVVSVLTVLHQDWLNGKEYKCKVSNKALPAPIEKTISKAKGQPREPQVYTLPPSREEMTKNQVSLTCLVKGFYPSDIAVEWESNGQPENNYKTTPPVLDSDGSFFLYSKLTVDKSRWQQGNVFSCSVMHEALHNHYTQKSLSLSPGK
light: DIVMTQSPATLSLSPGERATLSCRSSKSLQNVNGNTYLYWFQQKPGQSPQLLIYRMSNLNSGVPDRFSGSGSGTEFTLTISSLEPEDFAVYYCMQHLEYPITFGAGTKLEIKRTVAAPSVFIFPPSDEQLKSGTASVVCLLNNFYPREAKVQWKVDNALQSGNSQESVTEQDSKDSTYSLSSTLTLSKADYEKHKVYACEVTHQGLSSPVTKSFNRGEC
notes: HuAM4G7 anti-CD19 IgG1 (m1) with this Fc substitution, EU index; copies: 2 + 2
With B1, the “Fold vs WT IgG1 (off-rate)” value was 0.144 fold in assay [1], 0.936 fold in assay [2] and 0.561 fold in assay [3]. Also, the binding result in assay [4], in [5] and in assay [9] was “no binding” each time. The “Fold vs WT IgG1” value worked out at 0.0362 fold in assay [6], 0.409 fold in [7] and 0.228 fold in assay [8]. For the same molecule, the results for the dissociation constant (Kd) in assay [6], in [7] and in [8] were 0.00911 µM, 3.59 µM and 3.76 µM, respectively.

B2: L235Y (antibody, human IgG1, kappa)
heavy: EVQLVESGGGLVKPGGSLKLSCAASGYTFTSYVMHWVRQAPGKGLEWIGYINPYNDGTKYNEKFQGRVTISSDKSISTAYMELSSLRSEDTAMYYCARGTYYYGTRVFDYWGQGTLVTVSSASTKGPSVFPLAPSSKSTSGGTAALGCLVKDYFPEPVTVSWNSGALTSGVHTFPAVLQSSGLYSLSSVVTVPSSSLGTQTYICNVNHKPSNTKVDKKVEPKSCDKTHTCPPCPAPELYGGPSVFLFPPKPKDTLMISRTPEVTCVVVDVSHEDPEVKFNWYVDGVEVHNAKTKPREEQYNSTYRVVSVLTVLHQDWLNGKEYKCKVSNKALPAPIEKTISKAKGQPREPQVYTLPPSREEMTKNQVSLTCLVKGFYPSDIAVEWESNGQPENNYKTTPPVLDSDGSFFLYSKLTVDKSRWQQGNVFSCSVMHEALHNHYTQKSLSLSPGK
light: DIVMTQSPATLSLSPGERATLSCRSSKSLQNVNGNTYLYWFQQKPGQSPQLLIYRMSNLNSGVPDRFSGSGSGTEFTLTISSLEPEDFAVYYCMQHLEYPITFGAGTKLEIKRTVAAPSVFIFPPSDEQLKSGTASVVCLLNNFYPREAKVQWKVDNALQSGNSQESVTEQDSKDSTYSLSSTLTLSKADYEKHKVYACEVTHQGLSSPVTKSFNRGEC
notes: as for B1
On to B2, for which the “Fold vs WT IgG1 (off-rate)” value turned out to be 0.507 fold in assay [1], 1.02 fold in assay [10], 0.92 fold in assay [2] and 0.535 fold in assay [3]. Besides, the “Fold vs WT IgG1” value in [5] amounted to 0.504 fold; in assay [6], 0.00232 fold; in [7], 1.05 fold; in assay [8] it was 1.28 fold; in assay [9], 1.35 fold. The Kd in assay [5] is 0.38 µM; in assay [6] it was 0.142 µM; in assay [7] it was 1.4 µM; in [8], 0.669 µM; in assay [9], 0.479 µM.

B3: S239E (antibody, human IgG1, kappa)
heavy: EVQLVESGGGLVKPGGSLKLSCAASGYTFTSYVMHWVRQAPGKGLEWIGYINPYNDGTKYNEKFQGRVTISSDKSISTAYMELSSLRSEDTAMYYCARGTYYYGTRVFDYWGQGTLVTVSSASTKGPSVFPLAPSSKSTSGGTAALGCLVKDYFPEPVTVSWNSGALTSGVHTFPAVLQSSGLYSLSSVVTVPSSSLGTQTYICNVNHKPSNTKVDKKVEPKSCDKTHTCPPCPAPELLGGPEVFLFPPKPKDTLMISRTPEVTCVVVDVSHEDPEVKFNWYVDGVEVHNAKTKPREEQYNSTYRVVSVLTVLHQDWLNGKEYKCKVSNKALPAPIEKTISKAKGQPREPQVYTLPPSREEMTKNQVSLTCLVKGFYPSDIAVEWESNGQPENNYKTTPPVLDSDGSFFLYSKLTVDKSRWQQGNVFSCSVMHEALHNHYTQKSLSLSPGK
light: DIVMTQSPATLSLSPGERATLSCRSSKSLQNVNGNTYLYWFQQKPGQSPQLLIYRMSNLNSGVPDRFSGSGSGTEFTLTISSLEPEDFAVYYCMQHLEYPITFGAGTKLEIKRTVAAPSVFIFPPSDEQLKSGTASVVCLLNNFYPREAKVQWKVDNALQSGNSQESVTEQDSKDSTYSLSSTLTLSKADYEKHKVYACEVTHQGLSSPVTKSFNRGEC
notes: as for B1
For the molecule B3, the “Fold vs WT IgG1 (off-rate)” value in assay [1] stood at 1.93 fold; in assay [10], 3.1 fold; in [2] it was 1.25 fold; in assay [3] it was 2.26 fold. In addition, the “Fold vs WT IgG1” value in [5] stood at 3.49 fold; in [6] it was 1.65 fold; in assay [7] it was 0.803 fold; in assay [8], 0.688 fold; in assay [9], 0.49 fold. Further, the Kd amounted to 0.0548 µM in assay [5]; 0.0002 µM in [6]; 1.83 µM in assay [7]; 1.25 µM in [8]; 1.32 µM in assay [9].

B4: L235F/S267E (antibody, human IgG1, kappa)
heavy: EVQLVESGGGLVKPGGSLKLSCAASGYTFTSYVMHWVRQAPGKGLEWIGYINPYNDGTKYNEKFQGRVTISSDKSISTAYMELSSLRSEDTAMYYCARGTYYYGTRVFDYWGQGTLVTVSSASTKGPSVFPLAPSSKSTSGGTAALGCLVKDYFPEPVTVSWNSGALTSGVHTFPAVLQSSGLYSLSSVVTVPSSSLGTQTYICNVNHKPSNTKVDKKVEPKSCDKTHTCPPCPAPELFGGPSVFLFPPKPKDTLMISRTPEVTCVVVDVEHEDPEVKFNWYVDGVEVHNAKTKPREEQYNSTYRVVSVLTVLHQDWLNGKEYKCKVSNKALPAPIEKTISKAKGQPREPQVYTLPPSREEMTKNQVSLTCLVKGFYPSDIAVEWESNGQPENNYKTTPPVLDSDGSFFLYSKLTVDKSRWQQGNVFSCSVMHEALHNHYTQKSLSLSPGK
light: DIVMTQSPATLSLSPGERATLSCRSSKSLQNVNGNTYLYWFQQKPGQSPQLLIYRMSNLNSGVPDRFSGSGSGTEFTLTISSLEPEDFAVYYCMQHLEYPITFGAGTKLEIKRTVAAPSVFIFPPSDEQLKSGTASVVCLLNNFYPREAKVQWKVDNALQSGNSQESVTEQDSKDSTYSLSSTLTLSKADYEKHKVYACEVTHQGLSSPVTKSFNRGEC
notes: HuAM4G7 anti-CD19 IgG1 (m1) with these Fc substitutions, EU index; copies: 2 + 2
B4: the “Fold vs WT IgG1 (off-rate)” value in assay [1] was found to be 0.515 fold; in assay [2], 1.39 fold; in assay [3], 0.255 fold. In addition, the binding result in [4] and in [5] was “no binding” in each case. Moreover, the “Fold vs WT IgG1” value in [6] came out at 0.0176 fold; in assay [7], 28.4 fold; in assay [8] it was 32.5 fold; in assay [9] it was 0.402 fold. For the same molecule, the dissociation constant Kd was found to be 0.0187 µM in assay [6], 0.0517 µM in assay [7], 0.0264 µM in assay [8] and 1.61 µM in assay [9].
